Several values for one entry are separate records, joined by “and”; a condition that tells them apart may be missing. Equal values may be shown once. Read-outs that look alike come from different tables or passages of the source.
Key:
[1] = molecular target: human GLP-1R (Homo sapiens, UniProt P43220); test: In vitro receptor activation reporter assay (CRE-Luc, HEK293-GLP-1R-CRE cells; receptor-mediated cAMP synthesis); type: cell-based; set-up: expressed in transfected cells; host or cells: HEK293 (CRE-HEK293, HEK293-GLP-1R-CRE); conditions: Table 11, human
Sequence of human GLP-1R (P43220 24-463): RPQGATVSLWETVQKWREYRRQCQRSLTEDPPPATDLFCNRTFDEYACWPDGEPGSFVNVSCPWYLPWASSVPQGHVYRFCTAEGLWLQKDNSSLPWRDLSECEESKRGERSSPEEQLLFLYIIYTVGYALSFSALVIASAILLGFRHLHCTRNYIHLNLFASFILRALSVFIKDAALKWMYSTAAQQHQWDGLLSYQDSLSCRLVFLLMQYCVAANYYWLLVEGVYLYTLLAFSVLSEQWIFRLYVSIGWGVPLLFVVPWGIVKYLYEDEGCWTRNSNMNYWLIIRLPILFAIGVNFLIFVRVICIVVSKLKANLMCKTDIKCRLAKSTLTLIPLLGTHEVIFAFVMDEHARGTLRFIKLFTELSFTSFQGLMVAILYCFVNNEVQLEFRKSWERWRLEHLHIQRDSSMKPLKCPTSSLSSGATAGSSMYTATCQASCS

[2] = molecular target: T1, human GIPR (Homo sapiens, UniProt P48546); test: In vitro receptor activation reporter assay (CRE-Luc, HEK293-GIPR-CRE cells; receptor-mediated cAMP synthesis); type: cell-based; conditions: Table 11, human
T1 construct: expressed in transfected cells; host or cells: HEK293 (CRE-HEK293, HEK293-GIPR-CRE)
T1 sequence (P48546 22-466): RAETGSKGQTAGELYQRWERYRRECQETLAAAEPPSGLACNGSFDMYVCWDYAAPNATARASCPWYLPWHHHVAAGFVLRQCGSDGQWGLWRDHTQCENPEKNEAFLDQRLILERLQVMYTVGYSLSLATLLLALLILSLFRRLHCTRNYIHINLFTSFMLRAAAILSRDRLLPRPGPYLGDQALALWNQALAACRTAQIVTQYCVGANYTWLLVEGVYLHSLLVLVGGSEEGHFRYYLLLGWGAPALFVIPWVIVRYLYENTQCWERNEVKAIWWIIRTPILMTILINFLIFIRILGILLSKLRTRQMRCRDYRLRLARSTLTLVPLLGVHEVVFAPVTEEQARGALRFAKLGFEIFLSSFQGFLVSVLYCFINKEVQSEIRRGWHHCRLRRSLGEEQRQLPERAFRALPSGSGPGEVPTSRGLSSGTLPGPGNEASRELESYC
Method: HEK293 cells were infected with lentivirus encoding firefly luciferase gene under the control of cAMP responsive element (CRE) promoter (Qiagen, The Netherlands) and then were selected using 1 μg mL^−1 puromycin (Life Technologies, Carlsbad) for 1 week. The surviving cells (referred to as CRE-HEK293) were expanded and then transfected with a G418 selective mammalian expression plasmid encoding human GLP-1R or GIPR. In brief, GLP-1R or GIPR plasmid was transfected into CRE-HEK293 cells using Lipofectamine 2000 and selected with 400 μg mL^−1 Geneticin (Life Technologies, Carlsbad, CA). Single colony stable cell line overexpressing CRE-luciferase and GLP-1R or GIPR (HEK293-GLP-1R-CRE or HEK293-GIPR-CRE) was then established for in vitro activity assay.

[3] = molecular target: T2, mouse GLP1R (Mus musculus, UniProt O35659); test: In vitro potency, mouse GLP1R activation (receptor-mediated cAMP synthesis); type: cell-based; conditions: Table 12
T2 sequence (O35659 22-463): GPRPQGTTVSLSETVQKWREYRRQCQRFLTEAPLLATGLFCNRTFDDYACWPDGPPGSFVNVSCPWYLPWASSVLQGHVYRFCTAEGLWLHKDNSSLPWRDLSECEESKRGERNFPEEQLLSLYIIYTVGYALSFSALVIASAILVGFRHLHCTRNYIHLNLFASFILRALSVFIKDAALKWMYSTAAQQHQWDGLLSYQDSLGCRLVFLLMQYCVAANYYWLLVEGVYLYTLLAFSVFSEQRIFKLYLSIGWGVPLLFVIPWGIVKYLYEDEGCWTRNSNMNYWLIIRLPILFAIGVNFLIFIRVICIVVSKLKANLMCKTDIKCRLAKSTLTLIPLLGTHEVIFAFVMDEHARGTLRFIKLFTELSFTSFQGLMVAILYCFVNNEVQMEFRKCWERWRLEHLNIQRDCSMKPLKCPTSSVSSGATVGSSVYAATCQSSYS
Method: (§1) GLP-1R-CRE or HEK293-GIPR-CRE cells were seeded in 384-well plates at a density of 5000 cells per well and cultured for 18 h in DMEM with 10% FBS at 37° C. and 5% CO2. Cells were treated with peptides in a dose dependent manner for 24 h, and receptor activation was reported by luminescence intensities, using One-Glo (Promega, WI) luciferase reagent following manufacturer's instruction. The EC50 of each peptide was determined using GraphPad Prism 6 software (GraphPad, San Diego, CA). Results are depicted in FIGS. 6A-6B, FIGS. 7A-7B, FIGS. 8A-8B, FIGS. 9A-9B, and Tables 7-12. Measurements of peptide conjugate potency were expressed as half maximal effective concentration (EC50) values.

[4] = Pharmacokinetics in CD-1 mouse, I.V. or S.C. 1 mg/kg, plasma concentration by LC-MS; conditions: individual animals; for AUC(0-inf): AUCINF_pred; for MRT inf / MRT last: mouse, in vivo; for MRT inf: MRTINF_pred; for MRT last: MRTlast;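 for all read-outs here: peptide levels in plasma quantified by LC-MS across multiple sampling times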
Method: The peptide plasma concentration at various time points was determined using LC-MS.

[5] = molecular target: T3, dog GLP1R (Canis lupus familiaris, UniProt A0A8I3NUR9); test: In vitro potency, dog GLP1R activation (receptor-mediated cAMP synthesis); type: cell-based; conditions: Table 12
T3 sequence (A0A8I3NUR9 1-464): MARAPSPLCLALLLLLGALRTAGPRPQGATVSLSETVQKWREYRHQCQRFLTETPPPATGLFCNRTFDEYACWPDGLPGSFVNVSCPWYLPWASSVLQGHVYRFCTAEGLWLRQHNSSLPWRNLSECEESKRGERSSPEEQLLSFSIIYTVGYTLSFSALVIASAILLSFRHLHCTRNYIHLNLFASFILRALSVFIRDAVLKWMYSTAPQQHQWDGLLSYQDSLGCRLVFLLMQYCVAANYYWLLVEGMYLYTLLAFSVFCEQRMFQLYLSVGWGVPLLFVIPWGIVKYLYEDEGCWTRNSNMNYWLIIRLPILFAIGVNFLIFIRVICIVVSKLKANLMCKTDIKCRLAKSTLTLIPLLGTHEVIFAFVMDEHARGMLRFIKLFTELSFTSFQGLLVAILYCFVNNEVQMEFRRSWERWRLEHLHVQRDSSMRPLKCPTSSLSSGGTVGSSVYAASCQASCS
Method: as §1

[6] = in vivo; conditions: cynomolgus monkey
[7] = CD-1, mouse, plasma, iv, 1 mg/kg, Table 15, I.V. 1 mg/kg
[8] = CD-1, mouse, plasma, sc, 1 mg/kg, S.C.
[9] = Table 15, I.V. 1 mg/kg, 1 mg/kg
[10] = iv, 1 mg/kg, Table 15, I.V. 1 mg/kg

Structure (SMILES): CC[C@H](C)[C@H](NC(=O)[C@H](CC(C)C)NC(=O)[C@H](Cc1c[nH]c2ccccc12)NC(=O)[C@@H]1CSCC(=O)NCCN(C(=O)CCC(=O)NCCOCCOCCC(=O)NCCOCCOCCC(=O)NCCCC[C@H](NC(=O)CCCCCCCCCCCCCCCCC(=O)O)C(=O)O)CCNC(=O)CSC[C@H](NC(=O)[C@H](CCCCN)NC(=O)[C@H](CC(=O)O)NC(=O)[C@H](CC(C)C)NC(=O)[C@H](Cc2ccc(O)cc2)NC(=O)[C@@H](NC(=O)[C@H](CO)NC(=O)[C@H](Cc2ccc(O)cc2)NC(=O)[C@H](CC(=O)O)NC(=O)[C@H](CO)NC(=O)[C@@H](NC(=O)[C@H](Cc2ccccc2)NC(=O)[C@@H](NC(=O)CNC(=O)[C@H](CCC(=O)O)NC(=O)C(C)(C)NC(=O)[C@@H](N)Cc2ccc(O)cc2)[C@@H](C)O)[C@@H](C)O)[C@@H](C)CC)C(=O)N[C@@H](C)C(=O)N[C@@H](C)C(=O)NC(C)(C)C(=O)N[C@@H](CCC(=O)O)C(=O)N[C@@H](Cc2ccccc2)C(=O)N[C@@H](C(C)C)C(=O)N1)C(=O)N[C@@H](C)C(=O)NCC(=O)NCC(=O)N1CCC[C@H]1C(=O)N[C@@H](CO)C(=O)N[C@@H](CO)C(=O)NCC(=O)N[C@@H](C)C(=O)N1CCC[C@H]1C(=O)N1CCC[C@H]1C(=O)N1CCC[C@H]1C(=O)N[C@@H](CO)C(N)=O [mCMZ371, YAibEGT-FTSDY-SIYLD-KXAAAib-EFVXW-LIAGG-PSSGA-PPPS-NH2 (where each X is C) (SEQ ID NO: 61)]
- EC50 ([1]; In Vitro Potency GLPIR EC50, 10% FBS, 10% FBS): 0.56 ± 0.15 nM
- EC50 ([1]; No Serum, read-out: In Vitro Potency GLPIR EC50, No Serum): 0.14 ± 0.06 nM
- EC50 ([2]; In Vitro Potency GIPR EC50, 10% FBS, 10% FBS): 0.04 ± 0.01 nM
- EC50 ([2]; No Serum, read-out: In Vitro Potency GIPR EC50, No Serum): 0.01 nM
- EC50 [3]: 0.09 nM
- AUC ([4]; CD-1, mouse, plasma, iv, 1 mg/kg, AUC0_24, Table 15, I.V. 1 mg/kg): 242 µg·h/mL
- AUC(0-t) ([4]; CD-1, mouse, plasma, iv, 1 mg/kg, AUC last, Table 15, I.V. 1 mg/kg): 341 µg·h/mL
- AUC(0-inf) [4, 7]: 344 µg·h/mL
- C0 ([4]; CD-1, mouse, plasma, iv, 1 mg/kg, C0, Table 15, I.V. 1 mg/kg): 15500 ng/mL
- Cmax ([4]; CD-1, mouse, plasma, iv, 1 mg/kg, Cmax, Table 15, I.V. 1 mg/kg): 15100 ng/mL
- Tmax [4, 7]: 0.08 h
- Vd ([4]; CD-1, mouse, plasma, iv, 1 mg/kg, Vss_pred, Table 15, I.V. 1 mg/kg): 0.051 L/kg
- Vd ([4]; CD-1, mouse, plasma, iv, 1 mg/kg, Vz_pred, Table 15, I.V. 1 mg/kg): 0.038 L/kg
- half-life ([4]; CD-1, mouse, plasma, iv, 1 mg/kg, t1/2, Table 15, I.V. 1 mg/kg): 9.13 h
- AUC ([4]; CD-1, mouse, plasma, sc, 1 mg/kg, AUC0_24, CD-1 mouse, S.C.): 127 µg·h/mL
- AUC(0-inf) [4, 8]: 274 µg·h/mL
- AUC ([4]; CD-1, mouse, plasma, sc, 1 mg/kg, AUCall, S.C.): 267 µg·h/mL
- CL/F ([4]; CD-1, mouse, plasma, sc, 1 mg/kg, Cl_Fpred, S.C.): 0.12 mL/min/kg
- Tmax [4, 8]: 24 h
- half-life ([4]; CD-1, mouse, plasma, sc, 1 mg/kg, t1/2, CD-1 mouse, S.C.): 10.7 h
- AUC0_24 ([4]; CD-1 mouse, S.C., 1 mg/kg): 67.917 µg·h/mL and 95.28 µg·h/mL
- AUCINF_pred ([4]; CD-1 mouse, S.C., 1 mg/kg): 143.707 µg·h/mL and 202.468 µg·h/mL
- AUC_% Extrap_pred ([4]; CD-1 mouse, S.C., 1 mg/kg): 2.34% and 3.37% and 2.55%
- AUCall ([4]; CD-1 mouse, S.C., 1 mg/kg): 138.868 µg·h/mL and 197.314 µg·h/mL
- AUMC_% Extrap_pred ([4]; CD-1 mouse, S.C., 1 mg/kg): 7.05% and 10.52% and 7.78%
- Cl_Fpred ([4]; CD-1 mouse, S.C., 1 mg/kg): 0.24 mL/min/kg
- Cmax ([4]; CD-1 mouse, S.C., 1 mg/kg): 9259 ng/mL and 3389 ng/mL and 6337 ng/mL
- MRTINF_pred ([4]; CD-1 mouse, S.C., 1 mg/kg): 28.76 h and 28.77 h
- MRTlast ([4]; CD-1 mouse, S.C., 1 mg/kg): 26.63 h and 27.22 h
- Tlast ([4]; CD-1 mouse, S.C., 1 mg/kg): 72 h
- V_F_pred ([4]; CD-1 mouse, S.C., 1 mg/kg): 0.06 L/kg and 0.12 L/kg and 0.08 L/kg
- t1/2 ([4]; CD-1 mouse, S.C., 1 mg/kg): 12.36 h and 11.01 h
- Tlast ([4]; Table 15, I.V. 1 mg/kg): 72 h
- AUC0_24 [4, 9]: 255.418 µg·h/mL and 285.442 µg·h/mL
- AUC last [4, 9]: 355.565 µg·h/mL and 403.09 µg·h/mL
- AUCINF_pred [4, 9]: 359.258 µg·h/mL and 407.964 µg·h/mL
- AUC_% Extrap_pred [4, 9]: 0.75% and 1.03% and 1.19%
- AUMC_% Extrap_pred [4, 9]: 3.41% and 4.82% and 5.56%
- C0 [4, 9]: 21060 ng/mL and 24603 ng/mL
- Cmax [4, 9]: 20910 ng/mL and 24203 ng/mL
- MRTINF_pred [4, 9]: 18.43 h and 18.65 h
- MRTlast [4, 9]: 17.72 h and 17.83 h
- Vss_pred [4, 9]: 0.054 L/kg and 0.046 L/kg
- Vz_pred [4, 9]: 0.04 L/kg and 0.036 L/kg
- t1/2 [4, 9]: 10 h and 10.31 h
- MRT inf [4, 10]: 18.7 h
- MRT last [4, 10]: 18.2 h
- MRT inf ([4]; sc, 1 mg/kg, CD-1 mouse, S.C.): 29 h
- MRT last ([4]; sc, 1 mg/kg, CD-1 mouse, S.C.): 27.6 h
- EC50 [5]: 1.34 nM
- t1/2 in cynomolgus monkeys (in words) [6]: long t1/2
- AUC(0-t) ([6]; iv): 267 µg·h/mL
- T last ([6]; iv): 240 h
- Vd ([6]; iv): 0.0538 L/kg
- clearance ([6]; iv): 0.0126 mL/min/kg
- half-life ([6]; iv): 60.2 h
- AUC(0-t) ([6]; sc): 156 µg·h/mL
- Cmax ([6]; sc): 1740 ng/mL
- T last ([6]; sc): 240 h
- Tmax ([6]; sc): 24 h
- bioavailability ([6]; sc): 58.5%
- half-life ([6]; sc): 49.3 h
